Consider 18 molecules from patent publication US6841385B2, “Transcription factor E2F DNA-binding domain inhibitor peptides and their use” (Topotarget UK Limited, priority 1999, dated 2005).

Ends that are not written are not given here. Peptide text beside a SMILES is read from it.

The target in one assay is T1, recombinant E2F1 and DP1 (Homo sapiens, UniProt Q01094).
T1 construct: Purified E2F1 N1-His (64-301) and DP1 N2-GST (84-249) were incubated at 10 μg/ml; His; made in house; host or cells: E. coli BL21 DE3 (pET28b) for E2F1
T1 sequence (Q01094 64-301): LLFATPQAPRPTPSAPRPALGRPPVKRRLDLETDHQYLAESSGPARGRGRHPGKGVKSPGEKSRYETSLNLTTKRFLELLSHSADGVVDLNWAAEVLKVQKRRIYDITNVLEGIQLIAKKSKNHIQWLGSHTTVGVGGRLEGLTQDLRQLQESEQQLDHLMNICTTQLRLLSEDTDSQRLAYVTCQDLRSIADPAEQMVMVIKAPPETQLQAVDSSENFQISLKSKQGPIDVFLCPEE
T1 sequence (Q14186 84-249 partner): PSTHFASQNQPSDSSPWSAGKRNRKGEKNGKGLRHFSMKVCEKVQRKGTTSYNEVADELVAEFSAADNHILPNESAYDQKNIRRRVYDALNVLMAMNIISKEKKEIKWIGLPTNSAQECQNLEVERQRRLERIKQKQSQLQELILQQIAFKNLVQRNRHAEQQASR
The experiment in a line: Band shift assay with recombinant E2F1 and DP1, B-myb E2F-binding site as probe. To be noted: for inhibition: SEQ ID NO: 2 Alanine-scanning; for IC50: B-myb E2F-binding site as probe, read-out: IC50, inhibition of DNA binding. How it is done:
N-terminal fragments of human E2F1 (aa 64-301), E2F2 (aa 69-306), E2F3 (aa 128-356), E2F4 (aa 1-198), E2F5 (aa 42-233) were cloned into bacterial expression vector pET28b (Novagen) and were purified from BL21 DE3 cells by immobilised metal-affinity chromatography. A N-terminal fragment of DP1 (aa 85-249) was expressed as GST fusion protein and purified by glutathione-affinity chromatography.
Purified E2F1 N1-His (64-301) and DP1 N2-GST (84-249) were incubated at 10 μg/ml in a buffer containing 10 mM HEPES, […], 1 mM EDTA, […], 33 mg/ml BSA and 0.1 μg of sonicated salmon sperm for 10 minutes on ice. ^32P-labelled probe was added and the reaction mixture was incubated at room temperature for 20 minutes. Probes were labelled by filling-in 5′ overhanging ends of 4-7 bases. Samples were run on 4% non denaturing polyacrylamide gel in 0.5% TBE at 4° C. Gels were exposed to X-ray films. Nuclear extract (3 μg) was incubated in 17 μl buffer containing 0.3 M NaCl, 0.4 M Tris pH 7.9, 100 mM EDTA, 0.4 M DTT, 13% glycerol, 1 μg of sonicated salmon sperm on ice. The samples were then incubated for 10 minutes at 30° C. and cooled on ice. ^32P-labelled probe was added, the reaction mixtures were incubated for another 10 minutes at 30° C. and then cooled on ice.
• B-myb: (5′-[…]) (SEQ ID NO:16) • NF-Y: 5′-ATTTTTCTGATTTGGTTAA (SEQ ID NO:17) • Spl: 5′-ATGGGGCGGAGA (SEQ ID NO:18) • ATF: 5′-[…] (SEQ ID NO:19) Introduction of Peptides into Mammalian Cells
The inhibitory potential of the peptides on E2F function was analysed in band shift assays with recombinant E2F1 and DP1. […] The IC50 concentrations for the 3 peptides were in the range of 50-100 μM. Inhibition to various extends was also observed using recombinant fragments of E2F2, E2F3, E2F4, E2F5, respectively. Approximately 100-fold lower IC50 values were found with a branched molecule consisting of 4 copies of SEQ ID NO:2 linked by MAP (multiple antigen peptide).

Another assay has as its system CycA promoter. Put plainly: Transcription from the CycA promoter, HeLa cells transiently transfected with CycA-Luciferase construct. The assay is classed as cell-based. From the text:
This finding is in agreement with the anti-repressor function of E2F in the CycA promoter, (Liu et al, Oncogene (1998), 16, 2957-2963).

For assay [1], the system named is HL60 cells. Put plainly: Growth of HL60 cells treated with peptide. Format: cell-based. To be noted: HL60 cells, concentrations between 1-5 μM. As to the method:
(§1) HeLa cells were grown in Dulbecco's Modified Eagle's Medium (DMEM) supplemented with fetal calf serum (FCS) and HL60 cells in RPMI 1640 supplemented with 10% FCS. Cells were treated with peptides in culture medium and incubated overnight before harvesting.
(§2) HeLa, 3T3, W138 cells were treated with varying concentration of MAP-4-SEQ ID NO:2-TAT and a control peptide MAP-4-SEQ ID NO:39-TAT wherein SEQ ID NO:39 is SEQ ID NO:2 but containing 2 alanine substitutions at positions 1 and 4, i.e. AVRAHF (SEQ ID NO:39) DNA replication was analysed by BrdU incorporation after 24 hours.
(§3) Effects became visible after 5-24 hours defending on the concentration of the peptide.

Another assay deals with HeLa cells. Put plainly: BrdU incorporation cell proliferation assay, HeLa cells. Format: cell-based. To be noted: 24 hrs, dose-dependent. As to the method:
as §1
The peptides were tested in further experiments for their effect on cell cycle progression and cell viability. For this purpose, the peptides were conjugated at their C-terminus to a cell penetrating HIV-Tat derived peptide (aa 48-60) (Fawell et al. (1994) Proc. Natl. Acad. Sci. USA 91, 664-668).
as §2
(§4) Four tumor cell lines U2OS (osteosarcoma), C33A (cervical carcinoma), HeLa (cervical carcinoma) and E2F4/ras (derived from primary rat embryo fibroblasts) were treated with the branched peptide MAP-4-SEQ ID NO:2-TAT or mutant control peptide MAP-4-SEQ ID NO:39-TAT for 24 hrs. Cell proliferation was measured using the BrDU proliferation assay from Boehringer Mannheim (Cat No. 1 647 229).
A general note: Incorporation of labelled thymidine or its analogues reports DNA synthesis.

A further assay relates to U2OS (osteosarcoma). The experiment in a line: BrDU proliferation assay, U2OS cells. The assay is classed as cell-based. To be noted: 24 hrs, dose-dependent. How it is done: as §4
Assay [2] concerns HL60 cells. The experiment in a line: Nuclease-laddering assay (DNA laddering) in HL60 cells. The assay is classed as cell-based. How it is done: Treated cells were collected, washed with PBS, resuspended in lysis buffer (50 mM Tris pH 7.9, 100 mM EDTA, pH 8, 100 mM NaCl, 1% SDS) and 500 μg/ml proteinase K and incubated at 55° C. for 18 h. Cells were then incubated with […] for 1 hour at 37° C., genomic DNA was purified and examined by agarose gel electrophoresis.
as §3

Assay [3] relates to C33A (cervical carcinoma). The experiment in a line: BrDU proliferation assay, C33A cells. Format: cell-based. To be noted: 24 hrs, dose-dependent. How it is done: as §4
The test system of assay [4] is HL60 cells. Put plainly: Apoptosis, staining of HL60 cells with Heochst 33342 propidium iodide. Format: cell-based. How it is done: as §3
Assay [5] has as its system E2F4/ras (derived from primary rat embryo fibroblasts). Put plainly: BrDU proliferation assay, E2F4/ras cells. To be noted: 24 hrs, dose-dependent. The assay is classed as cell-based. How it is done: as §4
The target in assay [6] is T2, recombinant E2F1 N1-His (64-301) with DP1 N2-GST (84-249) (human, UniProt Q01094 64-301; Q14186 84-249).
T2 construct: range 64-301;range 84-249; Both proteins were incubated together at 10 ug/ml in the band shift assay with a 32P-labelled B-myb E2F-site probe; also called recombinant E2F1 and DP1; not shown: His tag from vector pET28b; GST fusion partner
T2 sequence (Q01094 64-301, chain 1 of 2): as the sequence (Q01094 64-301) above
T2 sequence (Q14186 84-249, chain 2 of 2): as the sequence (Q14186 84-249 partner) above
Put plainly: deletion analysis; grade of inhibition of E2F DNA binding (band shift).

Assay [7] addresses T2, recombinant E2F1 N1-His (64-301) with …. The experiment in a line: alanine scanning; grade of inhibition of E2F DNA binding (band shift).
Protocol: (§5) Probes were labelled by filling-in 5' overhanging ends of 4–7 bases. Samples were run on 4% non denaturing polyacrylamide gel in 0.5% TBE at 4° C. Gels were exposed to X-ray films. […] The samples were then incubated for 10 minutes at 30° C. and cooled on ice. ^32P-labelled probe was added, the reaction mixtures were incubated for another 10 minutes at 30° C. and then cooled on ice.
For assay [8], the target named is E2F in nuclear extracts from F9 embryonal carcinoma cells. Put plainly: band shift with F9 nuclear extract; inhibition of E2F DNA binding.
Assay [9] has as its target E2F in HeLa cells (nuclear extracts; endogenous E2F in transfected HeLa cells). Put plainly: band shift with HeLa nuclear extract; inhibition of E2F DNA binding.
Assay [10] has as its target E2F5 overexpressed in stable transfected 3T3 cells (nuclear extract) (UniProt Q15329 1-346, limits assumed). Put plainly: band shift, extract of 3T3 cells overexpressing E2F5; inhibition of DNA binding.
Protocol: as §5
Assay [11] addresses E2F3 overexpressed in stable transfected 3T3 cells (nuclear extract) (UniProt O00716 1-465, limits assumed). The experiment in a line: band shift, extract of 3T3 cells overexpressing E2F3; inhibition of DNA binding.
Protocol: as §5
For assay [12], the target named is E2F2 overexpressed in stable transfected 3T3 cells (nuclear extract) (UniProt Q14209 1-437, limits assumed). Put plainly: band shift, extract of 3T3 cells overexpressing E2F2; inhibition of DNA binding.
E2F2 overexpressed in stable transfected 3T3 cells (nuclear extract), sequence (Q14209 whole entry): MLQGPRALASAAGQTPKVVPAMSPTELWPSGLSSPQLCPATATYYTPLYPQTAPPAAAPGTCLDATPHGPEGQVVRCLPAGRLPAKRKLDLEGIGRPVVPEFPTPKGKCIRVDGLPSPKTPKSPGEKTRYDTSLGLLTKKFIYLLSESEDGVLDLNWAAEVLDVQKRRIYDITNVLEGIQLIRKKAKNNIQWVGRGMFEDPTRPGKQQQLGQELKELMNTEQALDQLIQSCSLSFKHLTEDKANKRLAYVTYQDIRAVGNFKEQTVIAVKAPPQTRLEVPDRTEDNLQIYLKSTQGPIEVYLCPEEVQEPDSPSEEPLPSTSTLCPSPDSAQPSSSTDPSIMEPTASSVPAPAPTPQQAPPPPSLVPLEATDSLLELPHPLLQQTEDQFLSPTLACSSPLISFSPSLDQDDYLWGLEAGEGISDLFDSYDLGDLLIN
Protocol: as §5
The target of assay [13] is E2F1 overexpressed in stable transfected 3T3 cells (nuclear extract) (UniProt Q01094 1-437, limits assumed). Put plainly: band shift, extract of 3T3 cells overexpressing E2F1; inhibition of DNA binding.
E2F1 overexpressed in stable transfected 3T3 cells (nuclear extract), sequence (Q01094 whole entry): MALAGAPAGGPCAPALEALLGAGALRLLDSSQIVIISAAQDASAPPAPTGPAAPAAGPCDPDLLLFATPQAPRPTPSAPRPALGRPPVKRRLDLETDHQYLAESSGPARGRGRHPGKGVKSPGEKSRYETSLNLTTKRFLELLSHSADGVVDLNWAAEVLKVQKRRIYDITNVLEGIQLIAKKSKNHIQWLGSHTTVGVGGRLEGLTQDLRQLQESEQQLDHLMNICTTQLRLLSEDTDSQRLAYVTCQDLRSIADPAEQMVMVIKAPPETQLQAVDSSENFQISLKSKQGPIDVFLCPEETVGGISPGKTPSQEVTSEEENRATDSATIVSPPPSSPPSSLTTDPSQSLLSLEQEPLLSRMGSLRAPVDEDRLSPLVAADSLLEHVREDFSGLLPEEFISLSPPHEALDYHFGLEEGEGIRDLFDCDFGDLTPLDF
Protocol: as §5
Assay [14] deals with E2F4 overexpressed in stable transfected 3T3 cells (nuclear extract) (UniProt Q16254 2-413, limits assumed). Put plainly: band shift, extract of 3T3 cells overexpressing E2F4; inhibition of DNA binding.
E2F4 overexpressed in stable transfected 3T3 cells (nuclear extract), sequence (Q16254 2-413 limits assumed): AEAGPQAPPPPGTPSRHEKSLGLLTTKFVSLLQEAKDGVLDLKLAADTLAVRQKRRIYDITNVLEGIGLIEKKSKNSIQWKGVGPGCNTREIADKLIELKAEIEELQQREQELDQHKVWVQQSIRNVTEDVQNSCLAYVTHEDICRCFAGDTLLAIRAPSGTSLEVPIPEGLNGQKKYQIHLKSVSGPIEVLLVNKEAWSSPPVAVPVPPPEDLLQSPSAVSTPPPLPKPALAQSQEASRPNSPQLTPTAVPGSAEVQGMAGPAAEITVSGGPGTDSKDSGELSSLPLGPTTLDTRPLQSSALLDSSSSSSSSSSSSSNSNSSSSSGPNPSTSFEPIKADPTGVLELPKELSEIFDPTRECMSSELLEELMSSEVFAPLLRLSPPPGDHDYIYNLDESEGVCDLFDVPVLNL
Protocol: as §5
The target of assay [15] is T2, recombinant E2F1 N1-His (64-301) with …. The experiment in a line: alanine scanning; grade of inhibition of E2F DNA binding (band shift). This is another data set of the same source.
Protocol: as §5

E2F3 overexpressed in stable transfected 3T3 cells (nuclear extract), sequence (O00716 whole entry): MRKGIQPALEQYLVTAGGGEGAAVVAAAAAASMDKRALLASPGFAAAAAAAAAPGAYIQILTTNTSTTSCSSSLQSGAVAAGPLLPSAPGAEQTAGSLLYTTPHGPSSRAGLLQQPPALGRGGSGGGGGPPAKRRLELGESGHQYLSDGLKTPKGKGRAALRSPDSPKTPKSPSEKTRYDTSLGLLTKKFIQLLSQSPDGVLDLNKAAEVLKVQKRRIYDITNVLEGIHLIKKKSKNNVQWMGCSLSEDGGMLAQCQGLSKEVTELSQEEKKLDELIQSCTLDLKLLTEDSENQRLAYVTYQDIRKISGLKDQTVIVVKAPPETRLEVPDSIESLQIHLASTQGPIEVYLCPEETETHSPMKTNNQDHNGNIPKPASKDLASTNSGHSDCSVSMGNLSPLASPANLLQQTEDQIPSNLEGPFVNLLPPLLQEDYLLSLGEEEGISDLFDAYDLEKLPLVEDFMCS
E2F5 overexpressed in stable transfected 3T3 cells (nuclear extract), sequence (Q15329 whole entry): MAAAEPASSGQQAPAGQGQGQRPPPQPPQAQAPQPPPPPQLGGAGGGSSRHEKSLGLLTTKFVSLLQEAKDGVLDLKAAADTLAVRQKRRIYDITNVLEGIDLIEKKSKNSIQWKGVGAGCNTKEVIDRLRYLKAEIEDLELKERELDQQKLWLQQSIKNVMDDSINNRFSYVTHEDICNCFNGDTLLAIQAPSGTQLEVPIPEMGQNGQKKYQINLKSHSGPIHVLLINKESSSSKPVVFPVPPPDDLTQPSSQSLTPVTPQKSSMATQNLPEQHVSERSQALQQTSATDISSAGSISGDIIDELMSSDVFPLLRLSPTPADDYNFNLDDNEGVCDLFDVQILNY

Regarding WVRWAF [SEQ2-A5], the inhibition with recombinant E2F1 and DP1 was 0.

Take `CC(C)[C@H](NC(=O)[C@@H](N)Cc1c[nH]c2ccccc12)C(=O)N[C@@H](CCCNC(=N)N)C(=O)N[C@@H](Cc1c[nH]c2ccccc12)C(=O)N[C@@H](Cc1c[nH]cn1)C(=O)N[C@@H](Cc1ccccc1)C(=O)O` [SEQ ID NO:2, WVRWHF] (H-WVRWHF-OH): at recombinant E2F1 and DP1, the half-maximal inhibitory concentration (IC50) (as a rule, the concentration needed to halve the response being measured) is 50 to 100 µM. Take WARWHF [SEQ2-A2]: the inhibition in the assay with recombinant E2F1 and DP1 came out at 0. In the case of WVAWHF [SEQ2-A3], the inhibition with recombinant E2F1 and DP1 stood at 0.

On to `CC[C@H](C)[C@H](NC(=O)[C@H](CCCNC(=N)N)NC(=O)[C@H](CO)NC(=O)CN)C(=O)N[C@@H](CC(C)C)C(=O)N[C@H](C(=O)N[C@@H](Cc1ccccc1)C(=O)N[C@@H](CCCNC(=N)N)C(=O)N[C@@H](CO)C(=O)NCC(=O)N[C@@H](CO)C(=O)N[C@@H](Cc1c[nH]c2ccccc12)C(=O)N[C@@H](Cc1ccc(O)cc1)C(=O)N[C@@H](C)C(=O)N[C@@H](CO)C(=O)O)[C@@H](C)O` [SEQ ID NO:5, GSRILTFRSGSWYAS] (H-GSRILTFRSGSWYAS-OH), for which the IC50 at recombinant E2F1 and DP1 was 50 to 100 µM. Turning to “MAP-4-SEQ ID NO:39-TAT: control peptide; SEQ ID NO:39 is SEQ ID NO:2 with 2 alanine substitutions at positions 1 and 4, i.e. AVRAHF (not fully specified (N-terminus, C-terminus); also: MAP-4 branched core) [reference compound]”, the “effect on transcription from CycA-Luciferase construct” value with CycA promoter is “No effect”. Besides, the “inhibition of cell proliferation / cell growth” value in the assay on HL60 cells [1] is on record as “no inhibitory effects”. Besides, the inhibition of proliferation entry (with HeLa cells; with U2OS (osteosarcoma); in assay [3]; in assay [5]) was “not displayed” in each case. Besides, the DNA laddering entry in the assay with HL60 cells [2] is “No effects”. Further, in the assay on HL60 cells [4], the “hallmarks of apoptosis after staining” value is listed as “No effects”. In the case of `CC[C@H](C)[C@H](N)C(=O)N[C@@H](Cc1c[nH]c2ccccc12)C(=O)N[C@@H](CC(C)C)C(=O)N[C@@H](CO)C(=O)NCC(=O)N[C@@H](CC(C)C)C(=O)N[C@@H](CO)C(=O)N[C@@H](CCCNC(=N)N)C(=O)NCC(=O)N[C@H](C(=O)N[C@@H](Cc1c[nH]c2ccccc12)C(=O)N[C@H](C(=O)N[C@@H](CO)C(=O)N[C@@H](Cc1ccccc1)C(=O)N1CCC[C@H]1C(=O)O)C(C)C)C(C)C` [SEQ ID NO:4, IWLSGLSRGVWVSFP] (H-IWLSGLSRGVWVSFP-OH), the concentration for half-maximal inhibition (IC50) at recombinant E2F1 and DP1 is 50 to 100 µM.

B1: peptide SEQ ID NO:5 (GSRILTFRSGSWYAS) (peptide)
peptide: GSRILTFRSGSWYAS
notes: Synthetic peptide in the band shift assays
Take B1: in assay [6], the binding result is reported as “binds”.

B2: SEQ5-A3 (GSAILTFRSGSWYAS) (peptide)
peptide: GSAILTFRSGSWYAS
Consider B2, for which the binding result in [7] was “binds”.

B3: SEQ5-A13 (GSRILTFRSGSWAAS) (peptide)
peptide: GSRILTFRSGSWAAS
With B3, in assay [7], the binding result is on record as “binds”.

B4: SEQ5-8 (2-13) (SRILTFRSGSWY) (peptide)
peptide: SRILTFRSGSWY
On to B4, for which the binding result in assay [6] is “binds”.

B5: SEQ5-5 (3-15) (RILTFRSGSWYAS) (peptide)
peptide: RILTFRSGSWYAS
For the molecule B5, the binding result in assay [6] is reported as “binds”.

B6: peptide SEQ ID NO:5 (…) (peptide)
peptide: GSRILTFRSGSWYAS
For B6, the IC50 in assay [8] and in assay [9] was 100 µM each time.

B7: MAP4-SEQ ID NO:5 (peptide)
peptide: GSRILTFRSGSWYAS
modifications: also: tetravalent MAP core: 4 copies joined by C-terminus to Lys2-Lys-X core
notes: Branched tetravalent peptide on a lysine MAP core
Take B7: the IC50 in assay [10] is roughly 30 µM; in assay [8], 10 µM; in assay [11], roughly 30 µM; in assay [12], roughly 30 µM; in assay [13], roughly 30 µM; in [14], roughly 30 µM. Moreover, in [9], the concentration for half-maximal inhibition (IC50) worked out at 10 µM.

B8: peptide SEQ ID NO:2 (WVRWHF) (peptide)
peptide: WVRWHF
notes: as for B1
On to B8, for which the concentration without inhibition in assay [8] and in assay [9] was greater than 500 µM throughout. Besides, in assay [15], the binding result is on record as “binds”.

B9: SEQ2-A5 (WVRWAF) (peptide)
peptide: WVRWAF
With B9, the binding result in [15] is “binds”.

B10: SEQ2-A2 (WARWHF) (peptide)
peptide: WARWHF
Regarding B10, the binding result in assay [15] is “binds”.

B11: SEQ2-A3 (WVAWHF) (peptide)
peptide: WVAWHF
As to B11, in assay [15], the binding result is listed as “binds”.
